Measured values: patent US20240270846A1 (published 2024)
Residue numbers refer to the chain shown, from its start. Names may count otherwise.

B1: GLS3000 R29A one-arm antibody (H chain CE115HA000) (antibody, human IgG1, kappa, L234A L235A, N297A, name in Kabat numbering)
heavy: QVQLVESGGGVVQPGRSLRLSCAASGFTFSNAWMHWVRQAPGKGLEWVAQIKAKSNNYATYYAESVKGRFTISRDDSKNSLYLQMNSLKTEDTAVYYCRYVHYGAYYGVDAWGQGTTVTVSSASTKGPSVFPLAPSSKSTSGGTAALGCLVKDYFPEPVTVSWNSGALTSGVHTFPAVLQSSGLYSLSSVVTVPSSSLGTQTYICNVNHKPSNTKVDKKVEPKSCDKTHTCPPCPAPEAAGGPSVFLFPPKPKDTLMISRTPEVTCVVVDVSHEDPEVKFNWYVDGVEVHNAKTKPREEQYASTYRVVSVLTVLHQDWLNGKEYKCKVSNKALPAPIEKTISKAKGQPREPQVYTLPPSRCELTKNQVSLSCAVKGFYPSDIAVEWESNGQPENNYKTTPPVLDSDGSFFLVSKLTVDKSRWQQGNVFSCSVMHEALHNHYTQKSLSLSPDYKDDDDK
chain: EPKSSDKTHTCPPCPAPELLGGPSVFLFPPKPKDTLMISRTPEVTCVVVDVSHEDPEVKFNWYVDGVEVHNAKTKPREEQYNSTYRVVSVLTVLHQDWLNGKEYKCKVSNKALPAPIEKTISKAKGQPREPQVCTLPPSRDELTKNQVSLWCLVKGFYPSDIAVEWESNGQPENNYKTTPPVLDSDGSFFLYSKLTVDKSRWQQGNVFSCSVMHEALHNRYTQKSLSLSP
light: DIVMTQSPLSLPVTPGEPASISCRSSQSLVHSNANTYLHWYQQKPGQAPRLLIYKVSNRFSGVPDRFSGSGSGTDFTLKISRVEAEDVGVYYCGQGTQVPYTFGQGTKLEIKRTVAAPSVFIFPPSDEQLKSGTASVVCLLNNFYPREAKVQWKVDNALQSGNSQESVTEQDSKDSTYSLSSTLTLSKADYEKHKVYACEVTHQGLSSPVTKSFNRGEC
notes: one-arm antibody
B2: GLS3000 S27aY one-arm antibody (H chain CE115HA000) (antibody, human IgG1, kappa, L234A L235A, N297A, name in Kabat numbering)
heavy: B1 heavy
chain: B1 chain
light: B1 light with S28Y, A34R
notes: one-arm antibody
B3: GLS3000 S25E one-arm antibody (H chain CE115HA000) (antibody, human IgG1, kappa, L234A L235A, N297A, name in Kabat numbering)
heavy: B1 heavy
chain: B1 chain
light: B1 light with S25E, A34R
notes: one-arm antibody
B4: GLS3000 S27eA one-arm antibody (H chain CE115HA000) (antibody, human IgG1, kappa, L234A L235A, N297A, name in Kabat numbering)
heavy: B1 heavy
chain: B1 chain
light: B1 light with S32A, A34R
notes: one-arm antibody
B5: GLS3000 R29G one-arm antibody (H chain CE115HA000) (antibody, human IgG1, kappa, L234A L235A, N297A, name in Kabat numbering)
heavy: B1 heavy
chain: B1 chain
light: B1 light with A34G
notes: one-arm antibody
B6: GLS3000 S25L one-arm antibody (H chain CE115HA000) (antibody, human IgG1, kappa, L234A L235A, N297A, name in Kabat numbering)
heavy: B1 heavy
chain: B1 chain
light: B1 light with S25L, A34R
notes: one-arm antibody
B7: GLS3000 S25V one-arm antibody (H chain CE115HA000) (antibody, human IgG1, kappa, L234A L235A, N297A, name in Kabat numbering)
heavy: B1 heavy
chain: B1 chain
light: B1 light with S25V, A34R
notes: one-arm antibody
B8: GLS3000 S25A one-arm antibody (H chain CE115HA000) (antibody, human IgG1, kappa, L234A L235A, N297A, name in Kabat numbering)
heavy: B1 heavy
chain: B1 chain
light: B1 light with S25A, A34R
notes: one-arm antibody
B9: GLS3000 R29V one-arm antibody (H chain CE115HA000) (antibody, human IgG1, kappa, L234A L235A, N297A, name in Kabat numbering)
heavy: B1 heavy
chain: B1 chain
light: B1 light with A34V
notes: one-arm antibody
B10: GLS3000 S27aI one-arm antibody (H chain CE115HA000) (antibody, human IgG1, kappa, L234A L235A, N297A, name in Kabat numbering)
heavy: B1 heavy
chain: B1 chain
light: B1 light with S28I, A34R
notes: one-arm antibody
B11: GLS3000 S27aD one-arm antibody (H chain CE115HA000) (antibody, human IgG1, kappa, L234A L235A, N297A, name in Kabat numbering)
heavy: B1 heavy
chain: B1 chain
light: B1 light with S28D, A34R
notes: one-arm antibody
B12: GLS3000 R29L one-arm antibody (H chain CE115HA000) (antibody, human IgG1, kappa, L234A L235A, N297A, name in Kabat numbering)
heavy: B1 heavy
chain: B1 chain
light: B1 light with A34L
notes: one-arm antibody
B13: GLS3000 S27aP one-arm antibody (H chain CE115HA000) (antibody, human IgG1, kappa, L234A L235A, N297A, name in Kabat numbering)
heavy: B1 heavy
chain: B1 chain
light: B1 light with S28P, A34R
notes: one-arm antibody
B14: GLS3000 S25I one-arm antibody (H chain CE115HA000) (antibody, human IgG1, kappa, L234A L235A, N297A, name in Kabat numbering)
heavy: B1 heavy
chain: B1 chain
light: B1 light with S25I, A34R
notes: one-arm antibody
B15: GLS3000 R29T one-arm antibody (H chain CE115HA000) (antibody, human IgG1, kappa, L234A L235A, N297A, name in Kabat numbering)
heavy: B1 heavy
chain: B1 chain
light: B1 light with A34T
notes: one-arm antibody
B16: GLS3000 S27aG one-arm antibody (H chain CE115HA000) (antibody, human IgG1, kappa, L234A L235A, N297A, name in Kabat numbering)
heavy: B1 heavy
chain: B1 chain
light: B1 light with S28G, A34R
notes: one-arm antibody
B17: GLS3000 R29I one-arm antibody (H chain CE115HA000) (antibody, human IgG1, kappa, L234A L235A, N297A, name in Kabat numbering)
heavy: B1 heavy
chain: B1 chain
light: B1 light with A34I
notes: one-arm antibody
B18: GLS3000 S25T one-arm antibody (H chain CE115HA000) (antibody, human IgG1, kappa, L234A L235A, N297A, name in Kabat numbering)
heavy: B1 heavy
chain: B1 chain
light: B1 light with S25T, A34R
notes: one-arm antibody
B19: GLS3000 S25M one-arm antibody (H chain CE115HA000) (antibody, human IgG1, kappa, L234A L235A, N297A, name in Kabat numbering)
heavy: B1 heavy
chain: B1 chain
light: B1 light with S25M, A34R
notes: one-arm antibody
B20: GLS3000 S26P one-arm antibody (H chain CE115HA000) (antibody, human IgG1, kappa, L234A L235A, N297A, name in Kabat numbering)
heavy: B1 heavy
chain: B1 chain
light: B1 light with S26P, A34R
notes: one-arm antibody
B21: GLS3000 S25P one-arm antibody (H chain CE115HA000) (antibody, human IgG1, kappa, L234A L235A, N297A, name in Kabat numbering)
heavy: B1 heavy
chain: B1 chain
light: B1 light with S25P, A34R
notes: one-arm antibody
B22: GLS3000 S26E one-arm antibody (H chain CE115HA000) (antibody, human IgG1, kappa, L234A L235A, N297A, name in Kabat numbering)
heavy: B1 heavy
chain: B1 chain
light: B1 light with S26E, A34R
notes: one-arm antibody
B23: GLS3000 R29D one-arm antibody (H chain CE115HA000) (antibody, human IgG1, kappa, L234A L235A, N297A, name in Kabat numbering)
heavy: B1 heavy
chain: B1 chain
light: B1 light with A34D
notes: one-arm antibody
B24: GLS3000 R29Y one-arm antibody (H chain CE115HA000) (antibody, human IgG1, kappa, L234A L235A, N297A, name in Kabat numbering)
heavy: B1 heavy
chain: B1 chain
light: B1 light with A34Y
notes: one-arm antibody
B25: GLS3000 S25D one-arm antibody (H chain CE115HA000) (antibody, human IgG1, kappa, L234A L235A, N297A, name in Kabat numbering)
heavy: B1 heavy
chain: B1 chain
light: B1 light with S25D, A34R
notes: one-arm antibody
B26: GLS3000 S27aN one-arm antibody (H chain CE115HA000) (antibody, human IgG1, kappa, L234A L235A, N297A, name in Kabat numbering)
heavy: B1 heavy
chain: B1 chain
light: B1 light with S28N, A34R
notes: one-arm antibody
B27: GLS3000 R54D one-arm antibody (H chain CE115HA000) (antibody, human IgG1, kappa, L234A L235A, N297A, name in Kabat numbering)
heavy: B1 heavy
chain: B1 chain
light: B1 light with A34R, R59D
notes: one-arm antibody
B28: GLS3000 S27aE one-arm antibody (H chain CE115HA000) (antibody, human IgG1, kappa, L234A L235A, N297A, name in Kabat numbering)
heavy: B1 heavy
chain: B1 chain
light: B1 light with S28E, A34R
notes: one-arm antibody
B29: GLS3000 R29S one-arm antibody (H chain CE115HA000) (antibody, human IgG1, kappa, L234A L235A, N297A, name in Kabat numbering)
heavy: B1 heavy
chain: B1 chain
light: B1 light with A34S
notes: one-arm antibody
B30: GLS3000 R29P one-arm antibody (H chain CE115HA000) (antibody, human IgG1, kappa, L234A L235A, N297A, name in Kabat numbering)
heavy: B1 heavy
chain: B1 chain
light: B1 light with A34P
notes: one-arm antibody
B31: GLS3000 S26D one-arm antibody (H chain CE115HA000) (antibody, human IgG1, kappa, L234A L235A, N297A, name in Kabat numbering)
heavy: B1 heavy
chain: B1 chain
light: B1 light with S26D, A34R
notes: one-arm antibody
B32: GLS3000 R54A one-arm antibody (H chain CE115HA000) (antibody, human IgG1, kappa, L234A L235A, N297A, name in Kabat numbering)
heavy: B1 heavy
chain: B1 chain
light: B1 light with A34R, R59A
notes: one-arm antibody

molecular target: T1, CD3 epsilon homodimer protein (UniProt P07766 23-126); assay: SPR, CD3e homodimer on chip;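 note: surface plasmon resonance at 25 degrees C, antibodies flowed as analyte over CD3 epsilon homodimer amine-coupled to a CM4 chip, running buffer HBS-EP+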
T1 construct: also called CD3 (CD3 epsilon)
T1 sequence (P07766 23-126): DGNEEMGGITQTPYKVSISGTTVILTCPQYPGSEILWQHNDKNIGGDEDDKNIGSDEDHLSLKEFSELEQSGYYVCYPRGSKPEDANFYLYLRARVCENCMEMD

Point of comparison: B10, “ratio of amounts bound (altered form / unaltered GLS3000 antibody)” value 1. Against it:
- B1 — lower, 0.63
- B2 — higher, 1.1
- B3 — lower, 0.21
- B4 — higher, 1.03
- B5 — lower, 0.67
- B6 — lower, 0.24
- B7 — lower, 0.73
- B8 — lower, 0.92
- B9 — lower, 0.34
- B11 — lower, 0.79
- B12 — lower, 0.56
- B13 — lower, 0.99
- B14 — lower, 0.53
- B15 — lower, 0.63
- B16 — higher, 1.03
- B17 — lower, 0.37
- B18 — lower, 0.83
- B19 — lower, 0.31
- B20 — lower, 0.78
- B21 — higher, 1.01
- B22 — lower, 0.74
- B23 — lower, 0.41
- B24 — lower, 0.69
- B25 — lower, 0.18
- B26 — higher, 1.1
- B27 — lower, 0.36
- B28 — lower, 0.81
- B29 — lower, 0.68
- B30 — lower, 0.31
- B31 — lower, 0.86
- B32 — lower, 0.69
